Assay results from patent US20110305629A1 (published 2011).

T1: soluble αvβ6 (UniProt P06756 31-992; P18564 22-709, Biotinylated in the blocking ELISA of FIG. 7; the biotin sites are not stated.)
T1 alpha: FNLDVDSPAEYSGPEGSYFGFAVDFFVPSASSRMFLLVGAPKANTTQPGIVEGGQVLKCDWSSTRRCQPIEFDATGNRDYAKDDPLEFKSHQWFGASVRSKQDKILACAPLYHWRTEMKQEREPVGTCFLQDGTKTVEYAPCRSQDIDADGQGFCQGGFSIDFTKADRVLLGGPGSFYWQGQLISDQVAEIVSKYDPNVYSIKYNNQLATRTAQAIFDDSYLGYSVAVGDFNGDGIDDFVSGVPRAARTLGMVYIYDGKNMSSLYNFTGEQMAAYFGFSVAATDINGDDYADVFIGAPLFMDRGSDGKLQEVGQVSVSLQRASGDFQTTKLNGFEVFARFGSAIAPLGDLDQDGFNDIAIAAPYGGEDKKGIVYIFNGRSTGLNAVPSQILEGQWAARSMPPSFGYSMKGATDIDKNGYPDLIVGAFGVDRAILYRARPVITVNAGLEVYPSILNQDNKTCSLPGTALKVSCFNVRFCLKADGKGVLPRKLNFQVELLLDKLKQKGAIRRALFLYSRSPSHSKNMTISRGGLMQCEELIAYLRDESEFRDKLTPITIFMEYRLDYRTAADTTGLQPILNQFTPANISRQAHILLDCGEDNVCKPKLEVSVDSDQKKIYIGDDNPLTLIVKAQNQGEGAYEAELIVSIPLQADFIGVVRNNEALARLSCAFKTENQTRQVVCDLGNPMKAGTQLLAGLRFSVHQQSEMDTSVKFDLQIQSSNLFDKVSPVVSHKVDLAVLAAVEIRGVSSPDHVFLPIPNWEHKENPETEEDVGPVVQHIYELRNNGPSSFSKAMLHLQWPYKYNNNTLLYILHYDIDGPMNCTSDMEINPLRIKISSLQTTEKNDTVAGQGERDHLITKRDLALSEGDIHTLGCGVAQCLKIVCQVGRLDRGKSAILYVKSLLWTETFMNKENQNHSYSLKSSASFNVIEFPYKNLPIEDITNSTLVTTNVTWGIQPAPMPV
T1 beta: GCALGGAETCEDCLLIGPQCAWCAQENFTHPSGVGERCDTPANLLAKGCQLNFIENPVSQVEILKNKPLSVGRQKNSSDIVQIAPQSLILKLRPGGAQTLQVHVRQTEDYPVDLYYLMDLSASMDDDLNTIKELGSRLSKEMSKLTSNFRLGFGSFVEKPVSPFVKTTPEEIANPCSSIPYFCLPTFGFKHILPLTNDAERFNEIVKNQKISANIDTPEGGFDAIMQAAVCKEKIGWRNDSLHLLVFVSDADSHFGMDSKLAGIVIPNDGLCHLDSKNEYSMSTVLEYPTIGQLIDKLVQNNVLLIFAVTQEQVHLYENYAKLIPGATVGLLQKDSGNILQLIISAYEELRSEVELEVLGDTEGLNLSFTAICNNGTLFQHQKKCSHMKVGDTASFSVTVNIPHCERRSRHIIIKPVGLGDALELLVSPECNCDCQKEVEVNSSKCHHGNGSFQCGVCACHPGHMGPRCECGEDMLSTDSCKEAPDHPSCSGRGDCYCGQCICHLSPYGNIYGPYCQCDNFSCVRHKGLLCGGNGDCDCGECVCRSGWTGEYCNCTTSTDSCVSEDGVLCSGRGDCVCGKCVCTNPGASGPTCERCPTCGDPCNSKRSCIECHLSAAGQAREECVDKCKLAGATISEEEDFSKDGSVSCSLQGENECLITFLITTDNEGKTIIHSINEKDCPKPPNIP


Target: T1, soluble αvβ6
Assay: binding ELISA

Row | Binder | EC50 [µg/mL]
1 | chimeric 3G9 antibody (ch3G9) (antibody, V domains shown) VH: EVMLVESGGGLVQPGGSLRLSCAASGFTFSRYVMSWVRQAPGKGLEWVASISSGGRMYYPDTVKGRFTISRDSAKNSLYLQMNSLRAEDTAVYYCARGSIYDGYYVFPYWGQGTLVTVSS VL: DIVLTQSPATLSLSPGERATLSCRASQSVSTSSYSYMYWYQQKPGQAPRFLIKYASNLESGIPARFSGSGSGTDFTLTISSLEPEDFAVYYCQHNWEIPFTFGGGTKVEIK | 0.036
2 | chimeric 3G9 antibody containing a N to S substitution within the N-linked glycosylation site in the first CDR of the light chain (ch3G9S) (antibody, V domains shown) VH: EVMLVESGGGLVQPGGSLRLSCAASGFTFSRYVMSWVRQAPGKGLEWVASISSGGRMYYPDTVKGRFTISRDSAKNSLYLQMNSLRAEDTAVYYCARGSIYDGYYVFPYWGQGTLVTVSS VL: DIVLTQSPATLSLSPGERATLSCRASQSVSTSSYSYMYWYQQKPGQAPRFLIKYASNLESGIPARFSGSGSGTDFTLTISSLEPEDFAVYYCQHNWEIPFTFGGGTKVEIK | 0.043
